Target: T1, chicken FANCD2, wild type, purified recombinant (chicken, UniProt Q68Y81 1-1439)
T1 construct: FANCD2, chicken (Gallus gallus); also called cFANCD2; WT cFANCD2; source: E. coli BL21(DE3) codon(+)RIL, purified
Experiment: SEC; Superdex 200 10/300 GL; equimolar mixture of cFANCD2 and cFANCI; 20 mM Tris-HCl (pH 8.0), 10% glycerol, 200 mM NaCl, 5 mM 2-mercaptoethanol; fractions on 7% SDS-PAGE, silver staining
Conditions: both partners purified

T1 sequence (Q68Y81 whole entry): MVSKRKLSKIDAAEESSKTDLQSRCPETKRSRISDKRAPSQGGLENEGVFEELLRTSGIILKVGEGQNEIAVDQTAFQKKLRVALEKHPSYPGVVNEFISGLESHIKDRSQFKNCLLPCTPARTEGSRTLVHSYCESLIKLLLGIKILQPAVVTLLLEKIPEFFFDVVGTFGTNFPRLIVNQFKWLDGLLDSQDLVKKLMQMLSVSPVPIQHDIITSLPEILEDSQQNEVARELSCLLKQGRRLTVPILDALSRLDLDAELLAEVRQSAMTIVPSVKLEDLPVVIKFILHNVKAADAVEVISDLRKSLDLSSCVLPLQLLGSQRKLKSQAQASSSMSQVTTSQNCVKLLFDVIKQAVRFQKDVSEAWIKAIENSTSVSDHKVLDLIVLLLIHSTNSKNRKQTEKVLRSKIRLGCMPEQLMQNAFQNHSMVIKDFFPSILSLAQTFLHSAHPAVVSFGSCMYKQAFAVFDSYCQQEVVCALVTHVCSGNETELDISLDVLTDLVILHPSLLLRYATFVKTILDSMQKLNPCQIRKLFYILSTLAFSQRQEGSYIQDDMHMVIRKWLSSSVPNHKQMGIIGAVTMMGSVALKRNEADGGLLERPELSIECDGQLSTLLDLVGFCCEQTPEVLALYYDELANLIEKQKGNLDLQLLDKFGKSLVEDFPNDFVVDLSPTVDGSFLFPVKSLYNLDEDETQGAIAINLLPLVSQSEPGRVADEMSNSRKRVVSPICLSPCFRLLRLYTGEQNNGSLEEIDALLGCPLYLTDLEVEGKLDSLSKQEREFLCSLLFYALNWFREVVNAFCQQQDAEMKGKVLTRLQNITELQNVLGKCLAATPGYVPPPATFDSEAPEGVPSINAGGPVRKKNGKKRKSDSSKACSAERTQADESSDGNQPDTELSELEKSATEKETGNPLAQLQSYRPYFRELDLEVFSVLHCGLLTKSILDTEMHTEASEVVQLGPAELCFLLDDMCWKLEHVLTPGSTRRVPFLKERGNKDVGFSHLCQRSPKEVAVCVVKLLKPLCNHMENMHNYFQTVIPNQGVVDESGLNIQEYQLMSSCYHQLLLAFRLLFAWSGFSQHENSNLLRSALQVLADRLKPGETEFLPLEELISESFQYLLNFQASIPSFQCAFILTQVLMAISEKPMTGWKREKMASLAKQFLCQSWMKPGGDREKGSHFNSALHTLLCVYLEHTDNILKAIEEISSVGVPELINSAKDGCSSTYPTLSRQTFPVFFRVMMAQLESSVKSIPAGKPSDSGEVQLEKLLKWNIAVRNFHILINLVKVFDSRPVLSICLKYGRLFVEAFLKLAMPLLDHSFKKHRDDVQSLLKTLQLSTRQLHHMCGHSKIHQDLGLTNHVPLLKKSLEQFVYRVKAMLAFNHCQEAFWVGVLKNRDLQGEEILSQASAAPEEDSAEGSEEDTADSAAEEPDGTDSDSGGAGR

binding result: binds
B1: chicken FANCI, wild type, purified recombinant (natural protein, UniProt B0I564 1-1338, looked up)
chain: MAQRILQLAAEGSPERLQEALQGLTEGELGDMVTRQALRGRETAALLKGIFKGSPCSQQSGVLRRLQVYKHCVSLVESGDLHVGKVSEIIGLLMLEARQLPGHALAELATLFVEVIKRGSLSNGKSLELFSTVLTALSNSKESLAYGKGELNGEEFKKQLINTLCSSKWDPQCVIHLANMFRDIPLSGEELQFVVEKVLRMFSKLDLQEIPPLVYQLLLLSAKGSKKTVLEGIISFFNQLDKRQKEEQRVPQSADLEVATVPLDQLRHVEGTVILHIVSAINLDQDIGEELIKHLKTEQQKDPGKALCPFSVSLLLSTAVKHRLQEQIFDFLKTSITRSCKDLQILQASKFLQDLCPQQYDVTAVILEVVKNSAFGWDHVTQGLVDLGFSLMESYEPKKSFGGKAAETNLGLSKMPAQQACKLGASILLETFKVHEPIRSDILEQVLNRVLTKAASPVSHFIDLLSNIVVSAPLVLQNSSSRVTETFDNLSFLPIDTVQGLLRAVQPLLKVSMSVRDSLILVLQKAIFSRQLDARKAAVAGFLLLLRNFKILGSLTSSQCSQAIGATQVQADVHACYNSAANEAFCLEILGSLRRCLSQQADVRLMLYEGFYDVLRRNSQLASSIMETLLSQIKQYYLPQQDLLPPLKLEGCIMAQGDQIFLQEPLAHLLCCIQHCLAWYKSTVHLCKGAEDEEEEEDVGFEQNFEEMLESVTRRMIKSELEDFELDKSADFSPSSGVGVKNNIYAIQVMGICEVLIEYNFKIGNFSKNKFEDVLGLFTCYNKLSEILKEKAGKNKSTLGNRIARSFLSMGFVSTLLTALFRDNAQSHEESLAVLRSSTEFMRYAVSVALQKVQQLEEMGQTDGPDGQNPEKMFQNLCKITRVLLWRYTSIPTAVEESGKKKGKSISLLCLEGLLRIFNTMQQLYAARIPQFLQALDITDGDAEEADINVTEKAAFQIRQFQRSLVNQLSSAEDDFNSKETQLLITILSTLSKLLDPGSQQFLQFLTWTVKICKENALEDLSCCKGLLTLLFSLHVLYKSPVSLLRELAQDIHACLGDIDQDVEIESRSHFAIVNVKTAAPTVCLLVLGQADKVLEEVDWLIKRLTILGSDTSEDSTQASNQTQALEKGVILQLGTLLTVFHELVQTALPAGSCVDSLLRSLSKTYAILTSLIKHYIQACRSTSNTVPGRLEKLVKLSGSHLTPQCYSFITYVQNIHSESLSFAEEKKKKKKEDETAVVSTVMAKVLRDTKPIPNLIFAIEQYEKFLIHLSKKSKVNLMQYMKLSTSRDFRINASMLDSVLQEQNTEDAENEPDNNQSGTAEQPDENQEPQKKRRRKK
notes: FANCI, chicken (Gallus gallus); also called cFANCI; WT cFANCI; source: E. coli BL21(DE3) codon(+)RIL, purified

From article PMC4260917, “Defective FANCI Binding by a Fanconi Anemia-Related FANCD2 Mutant” (PLoS ONE, 2014)
